The values that follow come from publication PMC10845952.

The target in experiment [1] is MecA fused to the RenG N-terminal domain (1-155) (S. mutans) (UniProt Q8DW33). In words: split reporter (BiFC, NanoBiT).
Experiment [2] addresses RNase J1 fused to the RenG N-terminal domain (NTD1, 1-155) (S. mutans). In words: split reporter (BiFC, NanoBiT); RenG split luciferase complementation assay (SLCA) in live S. mutans at mid-log phase, coelenterazine-h, normalised to OD600; signal relative to unfused fragments; relative binding affinity = SLCA value divided by the value of the whole-RenG chimera of the less abundant partner.

Sequence of MecA fused to the RenG N-terminal domain (1-155) (S. mutans) (Q8DW33 whole entry, the tested form may be a part): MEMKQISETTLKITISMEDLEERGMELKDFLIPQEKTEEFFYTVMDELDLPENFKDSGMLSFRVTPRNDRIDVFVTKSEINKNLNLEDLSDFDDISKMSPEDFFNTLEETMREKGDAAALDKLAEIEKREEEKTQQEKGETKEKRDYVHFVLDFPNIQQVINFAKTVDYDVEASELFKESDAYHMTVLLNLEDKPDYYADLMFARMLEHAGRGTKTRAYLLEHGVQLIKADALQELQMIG

For the substance “GyrA fused to the RenG C-terminal domain (156-314) (natural protein)”, the relative binding affinity (%) in experiment [1] was 12.9%.
As for “RNase J2 fused to the RenG C-terminal domain (CTD1, 156-314) (natural protein)”, the relative binding affinity (%) in experiment [2] stood at 97.8%.
For the substance “ComX fused to the RenG C-terminal domain (156-314) (natural protein)”, the relative binding affinity (%) in experiment [1] worked out at 6.3%.
The same measure, in the same setting: next, “PcrA fused to the RenG C-terminal domain (156-314) (from UniProt Q8DTY6 1-733) (natural protein)”: 6.36%; “SpaP fused to the RenG C-terminal domain (156-314) (from UniProt P23504 998-1532) (natural protein)”: 1.72%.
